{"source": "FireProtDB (doi:10.1073/pnas.91.22.10325)", "conditions": "Equus caballus, pH 1.8, Thermal, HCl 20 mM, reversible: yes", "data": [{"substance": "Cytochrome c wild type, P00004", "values": [{"measurement": "Tm", "setting": "CD, NaClO4 10 mM", "value": 25.8, "unit": "°C"}, {"measurement": "heat capacity change of unfolding", "setting": "CD, NaClO4 10 mM", "value": 0.43, "unit": "kcal/mol/K"}, {"measurement": "unfolding enthalpy (van 't Hoff)", "setting": "CD, NaClO4 10 mM", "value": 28.2, "unit": "kcal/mol"}, {"measurement": "Tm", "setting": "CD, NaClO4 20 mM", "value": 37, "unit": "°C"}, {"measurement": "heat capacity change of unfolding", "setting": "CD, NaClO4 20 mM", "value": 0.43, "unit": "kcal/mol/K"}, {"measurement": "unfolding enthalpy (van 't Hoff)", "setting": "CD, NaClO4 20 mM", "value": 32.5, "unit": "kcal/mol"}, {"measurement": "Tm", "setting": "CD, NaClO4 50 mM", "value": 47, "unit": "°C"}, {"measurement": "heat capacity change of unfolding", "setting": "CD, NaClO4 50 mM", "value": 0.43, "unit": "kcal/mol/K"}, {"measurement": "unfolding enthalpy (van 't Hoff)", "setting": "CD, NaClO4 50 mM", "value": 38, "unit": "kcal/mol"}, {"measurement": "Tm", "setting": "DSC, NaClO4 20 mM", "value": 34.4, "unit": "°C"}, {"measurement": "heat capacity change of unfolding", "setting": "DSC, NaClO4 20 mM", "value": 0.31, "unit": "kcal/mol/K"}, {"measurement": "unfolding enthalpy (calorimetric)", "setting": "DSC, NaClO4 20 mM", "value": 32.3, "unit": "kcal/mol"}, {"measurement": "unfolding enthalpy (van 't Hoff)", "setting": "DSC, NaClO4 20 mM", "value": 31.8, "unit": "kcal/mol"}, {"measurement": "Tm", "setting": "DSC, NaClO4 30 mM", "value": 40, "unit": "°C"}, {"measurement": "heat capacity change of unfolding", "setting": "DSC, NaClO4 30 mM", "value": 0.31, "unit": "kcal/mol/K"}, {"measurement": "unfolding enthalpy (calorimetric)", "setting": "DSC, NaClO4 30 mM", "value": 31.4, "unit": "kcal/mol"}, {"measurement": "unfolding enthalpy (van 't Hoff)", "setting": "DSC, NaClO4 30 mM", "value": 31.4, "unit": "kcal/mol"}, {"measurement": "Tm", "setting": "DSC, NaClO4 40 mM", "value": 42.6, "unit": "°C"}, {"measurement": "heat capacity change of unfolding", "setting": "DSC, NaClO4 40 mM", "value": 0.31, "unit": "kcal/mol/K"}, {"measurement": "unfolding enthalpy (calorimetric)", "setting": "DSC, NaClO4 40 mM", "value": 34.9, "unit": "kcal/mol"}, {"measurement": "unfolding enthalpy (van 't Hoff)", "setting": "DSC, NaClO4 40 mM", "value": 34.9, "unit": "kcal/mol"}, {"measurement": "Tm", "setting": "DSC, NaClO4 50 mM", "value": 44.1, "unit": "°C"}, {"measurement": "heat capacity change of unfolding", "setting": "DSC, NaClO4 50 mM", "value": 0.31, "unit": "kcal/mol/K"}, {"measurement": "unfolding enthalpy (calorimetric)", "setting": "DSC, NaClO4 50 mM", "value": 33.7, "unit": "kcal/mol"}, {"measurement": "unfolding enthalpy (van 't Hoff)", "setting": "DSC, NaClO4 50 mM", "value": 33.7, "unit": "kcal/mol"}]}]}
